Article PMC8112011, “Adaptive laboratory evolution accelerated glutarate production by Corynebacterium glutamicum” (Microbial Cell Factories, 2021)
Positions count from the first letter of the chain named. Names may count otherwise.

B1: GltBD (GOGAT, L-glutamic acid-2-oxoglutarate aminotransferase) (Corynebacterium glutamicum ATCC 13032) (protein)
chain: CGVAFIADIHGRPSRSIVDRALEALRNIDHRGAAGAEKNTGDGAGILMQIPDGFYREVSGIELPEAGEYATGIAFLPRGRMAMMDAQKEIERIAKQEGADVLGWRMVPFDSRDLGSMAEEAMPSFAQIFLTVPGKSGEDLDRVMFFIRKRCERELGTTNGRDTVYFPSLSSRTIIYKGMLTTLQLEGFFEDLGDARLESAIAIVHSRFSTNTFPSWPLAHPYRFVAHNGEINTVRGNENWMRAREALIKNDKLGNLSSVLPICTPEGSDTARFDEALELLHLGGYSLPHAVAMMIPQAWEHNKTLSPELRDFYEYHSCLMEPWDGPAALAFTDGRFVGAVLDRNGLRPGRITITDSGLVVMASESGVLDLREESVVKRTRVQPGRMFLVDTAEGRIVEDEEIKQKLSEAQPYGEWIRDNFVHLDRLPQTRYNYMAHSRAVLRQRVFGITEEDVDLLLLPMARQGAEAIGSMGSDTPIAALSQRPRMLYDFFAQRFAQVTNPPLDSIREKPVTSMFTLLGAQSDVLNPGPDAARRIRLESPIIDNHELATLINANAHGEWDSFGAAVISGLYPVAHHGAGMKAAIARVRREVSEAIRNGKTLIVLSDRESDERMAPIPALLLTSAVHQYLVQQRTRTQCSLVVESGDAREVHHLAMLIGFGADAINPYMAFETIDELRMKGQLGDLSLDEASRNYIKAATTGVLKVMSKMGIATVSSYRGAQLADVTGLHQDLLDNYFGGIASPISGIGLDEVAADVEARHRSAFLPRPEEHAHRELDLGGEYKWRREGEYHLFNPETIFKLQHATRSGSYEIFKDYTRKVDDQSTRLGTIRGLFEFSTDRKPISVSEVEPVSEIVKRFSTGAMSYGSISAEAHEVLAIAMNRLGGMSNSGEGGEDARRFDVEPNGDWKRSAIKQVASGRFGVTSHYLNNCTDIQIKMAQGAKPGEGGQLPPNKVYPWVAEVRITTPGVGLISPPPHHDIYSIEDLAQLIHDLKNANPRARIHVKLVAEQGVGTVAAGVSKAHADVVLISGHDGGTGASPLTSLKHAGGPWELGLAETQQTLLLNGLRDRIRVQCDGQLKTGRDVVIAALLGAEEFGFATAPLVVEGCIMMRVCHLDTCPVGIATQNPDLRSKFTGKAEHVVNFFTFIAQEVREYLAQLGFRSIDEAVGQAQVLRKRSGIPADSRAAHLDLSPIFHRPETPHFPTQDVRCTKTQEHSLEKALDNAFIDKASDTITRAAAGVETSIVIDSSISNVNRSVGTMLGSAVSRVAGAQGLPDGTITLNLQGCAGNSFGAFIPRGITINLTGDANDFVGKGLSGGKIVIKPSAQAPKQLKNNPNIIAGNVLGYGATSGELFIRGQVGERFCVRNSGATAVVEGIGNHGCEYMTGGRVLVLGPVGENFGAGMSGGIAYLANSPDLNQKINGELVDVVPLSADDLTWADELIARHRELTGSETKLRAQDLVKIMPRDFQKVLNIIETAHAEGQDPAIKIMEAVS
notes: full-length gltBD on plasmid pEKEx3, overexpressed in C. glutamicum GRLys1ΔgltB (chromosomal gltB deleted); untagged; crude extract; with Glutamate synthase [NADPH] small chain
B2: GltBD (GOGAT, L-glutamic acid-2-oxoglutarate aminotransferase) (Corynebacterium glutamicum ATCC 13032; E686Q) (protein)
chain: B1 chain with E671Q
notes: as for B1

Substrate: NC(=O)CC[C@H](N)C(=O)O
Experiment: cells, lysate or membranes
Type: biochemical, Corynebacterium glutamicum
Conditions: 1.5 mM NADPH, 35 mM 2-oxoglutarate, 100 mM phosphate pH 7.0, 30 °C

Protein	Km
B1	250 ± 30 µM
B2	520 ± 40 µM
